Assay results taken from IntAct's records for PubMed 16775625.

B1: Cyclin-dependent kinase 14 (Homo sapiens), O94921 (parent)
chain: MCDLIEPQPAEKIGKMKKLRRTLSESFSRIALKKDDTTFDEICVTKMSTRNCQGMDSVIKPLDTIPEDKKVRVQRTQSTFDPFEKPANQVKRVHSENNACINFKTSSTGKESPKVRRHSSPSSPTSPKFGKADSYEKLEKLGEGSYATVYKGKSKVNGKLVALKVIRLQEEEGTPFTAIREASLLKGLKHANIVLLHDIIHTKETLTLVFEYVHTDLCQYMDKHPGGLHPDNVKLFLFQLLRGLSYIHQRYILHRDLKPQNLLISDTGELKLADFGLARAKSVPSHTYSNEVVTLWYRPPDVLLGSTEYSTCLDMWGVGCIFVEMIQGVAAFPGMKDIQDQLERIFLVLGTPNEDTWPGVHSLPHFKPERFTLYSSKNLRQAWNKLSYVNHAEDLASKLLQCSPKNRLSAQAALSHEYFSDLPPRLWELTDMSSIFTVPNVRLQPEAGESMRAFGKNNSYGKSLSNSKH
partner: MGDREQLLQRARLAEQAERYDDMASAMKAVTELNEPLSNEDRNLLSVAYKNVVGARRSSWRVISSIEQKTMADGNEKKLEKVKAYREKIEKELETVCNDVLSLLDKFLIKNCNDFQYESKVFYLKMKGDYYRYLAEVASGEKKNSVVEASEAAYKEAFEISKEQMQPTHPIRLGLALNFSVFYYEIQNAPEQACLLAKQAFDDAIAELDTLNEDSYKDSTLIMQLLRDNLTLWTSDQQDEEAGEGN
B2: Cyclin-dependent kinase 14 (Homo sapiens), O94921 (parent)
chain: B1 chain
B3: Cyclin-dependent kinase 14 (Homo sapiens), O94921 (parent)
chain: B1 chain
partner: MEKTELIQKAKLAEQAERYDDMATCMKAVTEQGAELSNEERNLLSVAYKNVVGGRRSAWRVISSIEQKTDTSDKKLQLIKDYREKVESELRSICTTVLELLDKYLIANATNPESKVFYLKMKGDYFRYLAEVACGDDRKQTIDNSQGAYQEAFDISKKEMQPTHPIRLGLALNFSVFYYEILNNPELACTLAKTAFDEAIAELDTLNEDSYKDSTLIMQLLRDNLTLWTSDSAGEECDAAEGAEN

Variants of: B1
Conditions: with 1433f_human YWHAH

Row | Variant | effect of a mutation on the interaction
1 | S119A | decreasing interaction

Variants of: B2
Conditions: with 1433b_human YWHAB

Row | Variant | effect of a mutation on the interaction
2 | S119A | decreasing interaction

Variants of: B2
Conditions: with 1433e_human YWHAE

Row | Variant | effect of a mutation on the interaction
3 | S119A | decreasing interaction

Variants of: B3
Conditions: with 1433t_human YWHAQ

Row | Variant | effect of a mutation on the interaction
4 | S119A | decreasing interaction
